Assay in all cases: cell_activity
Data set [1] concerns hSIRT ZFN pair (artificial). Conditions: ZFN activity of the pair; assay conditions not given.
The test system of data set [2] is ZFN pair targeting CHO Rosa26 (artificial). Conditions: indels in CHO K1 3 days post transfection, CEL-I or sequencing.
Data set [3] relates to hRSK4 ZFN pair (artificial). Conditions: ZFN activity of the pair; assay conditions not given.
Data set [4] has as its system ZFN pair targeting CHO Neu3 (artificial). Conditions: indels in CHO K1 3 days post transfection, CEL-I or sequencing.
Data set [5] deals with ZFN pair targeting CHO NW_003618207.1 (artificial). As to conditions: indels in CHO K1 3 days post transfection, CEL-I or sequencing.

The values that follow come from patent publication US20160145645.

For the substance “ATCTTGCCTGATTTGTAAATACAAAGTTGACTGTGAA (double strand) [hSIRT ZFN recognition sequence]”, the activity in data set [1] stood at 16.7%.
Regarding CHO Rosa26 locus, the activity in data set [2] is 31%.
Turning to “GGCTCCTACTCTGTTTGCAAGCGATGCATACATGCAA (double strand) [hRSK4 ZFN recognition sequence]”, in data set [3], the activity is 65.7%.
With CHO Neu3 locus, the activity in data set [4] was 41%.
Substance CHO NW_003618207.1 bp 12931-12970 gave an activity in data set [5] of 16%.
